According to article doi:10.1101/2025.08.05.668778 (bioRxiv, 2025):

What was measured:
[1] = molecular target: T1, factor H (intact) (human, UniProt P08603 19-1231); assay: ELISA; M, Enn or FbaA protein coated on wells (20 μg/ml in PBS pH 7.2, overnight 4 °C); soluble intact factor H 10 μg/ml, 1 h, RT; bound FH detected with mouse monoclonal anti-human FH and HRP anti-mouse IgG; uncoated wells subtracted; values normalized to wild type; settings: both partners purified
T1 construct: also called FH; intact FH; source: bought: Complement Technology
T1 sequence (P08603 19-1231): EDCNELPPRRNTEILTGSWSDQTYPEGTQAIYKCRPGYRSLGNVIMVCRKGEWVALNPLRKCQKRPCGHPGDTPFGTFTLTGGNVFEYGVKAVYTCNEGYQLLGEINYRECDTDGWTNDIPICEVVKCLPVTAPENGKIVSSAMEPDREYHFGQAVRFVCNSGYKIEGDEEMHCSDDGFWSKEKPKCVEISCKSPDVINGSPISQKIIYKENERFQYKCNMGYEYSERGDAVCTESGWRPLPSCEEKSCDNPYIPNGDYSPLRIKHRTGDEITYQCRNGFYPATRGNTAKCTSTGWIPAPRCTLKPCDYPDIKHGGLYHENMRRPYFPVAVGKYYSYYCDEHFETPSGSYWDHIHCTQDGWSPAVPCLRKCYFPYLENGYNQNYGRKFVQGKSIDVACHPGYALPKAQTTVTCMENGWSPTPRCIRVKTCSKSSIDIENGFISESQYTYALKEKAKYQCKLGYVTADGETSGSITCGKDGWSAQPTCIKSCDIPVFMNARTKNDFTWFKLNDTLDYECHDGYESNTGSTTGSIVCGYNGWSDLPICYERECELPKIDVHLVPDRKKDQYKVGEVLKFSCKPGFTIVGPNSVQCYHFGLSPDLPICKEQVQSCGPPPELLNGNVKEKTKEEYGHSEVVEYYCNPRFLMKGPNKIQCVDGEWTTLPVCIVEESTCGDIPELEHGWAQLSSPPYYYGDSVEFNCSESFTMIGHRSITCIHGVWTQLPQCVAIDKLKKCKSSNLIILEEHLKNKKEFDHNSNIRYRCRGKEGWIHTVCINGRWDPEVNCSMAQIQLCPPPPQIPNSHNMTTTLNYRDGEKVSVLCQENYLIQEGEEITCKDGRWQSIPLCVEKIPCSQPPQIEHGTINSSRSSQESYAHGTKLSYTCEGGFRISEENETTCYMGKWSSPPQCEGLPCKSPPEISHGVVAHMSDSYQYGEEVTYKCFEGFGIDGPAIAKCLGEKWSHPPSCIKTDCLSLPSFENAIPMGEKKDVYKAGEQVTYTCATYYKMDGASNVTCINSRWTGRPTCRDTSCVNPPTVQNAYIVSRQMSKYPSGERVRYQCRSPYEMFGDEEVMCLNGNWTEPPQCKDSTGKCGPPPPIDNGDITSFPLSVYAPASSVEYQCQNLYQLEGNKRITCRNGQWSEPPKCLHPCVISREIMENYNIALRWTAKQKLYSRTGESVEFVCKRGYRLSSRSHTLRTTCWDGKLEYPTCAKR

[2] = molecular target: the molecule itself; assay: crystal structure

B1: M5 protein, intact wild type (aa 43–377) (natural protein)
chain: AVTRGTINDPQRAKEALDKYELENHDLKTKNEGLKTENEGLKTENEGLKTENEGLKTEKKEHEAENDKLKQQRDTLSTQKETLEREVQNTQYNNETLKIKNGDLTKELNKTRQELANKQQESKENEKALNELLEKTVKDKIAKEQENKETIGTLKKILDETVKDKIAKEQENKETIGTLKKILDETVKDKLAKEQKSKQNIGALKQELAKKDEANKISDASRKGLRRDLDASREAKKQLEAEHQKLEEQNKISEASRKGLRRDLDASREAKKQLEAEQQKLEEQNKISEASRKGLRRDLDASREAKKQVEKALEEANSKLAALEKLNKELEESKK
notes: source: E. coli BL21 (Gold), purified; not shown: His6, C-terminal, kept
B1: binds [1].

B2: M5 protein fragment (aa 94–175) (domain or fragment)
chain: NEGLKTEKKEHEAENDKLKQQRDTLSTQKETLEREVQNTQYNNETLKIKNGDLTKELNKTRQELANKQQESKENEKALNELL
notes: source: E. coli BL21 (Gold), purified
In the case of B2, the “stoichiometry N” value [2] is reported as 2.

B3: M6 protein fragment (aa 74–157) (domain or fragment)
chain: NDKLTTENNNLTDQNKNLTTENKNLTDQNKNLTTENKNLTDQNKNLTTENKELKAEENRLTTENKGLTKKLSEAEEEAANKERE
notes: as for B2
For B3, the “stoichiometry N” value [2] was 2.

B4: M6 protein, intact wild type (aa 43–452) (natural protein)
chain: RVFPRGTVENPDKARELLNKYDVENSMLQANNDKLTTENNNLTDQNKNLTTENKNLTDQNKNLTTENKNLTDQNKNLTTENKELKAEENRLTTENKGLTKKLSEAEEEAANKERENKEAIGTLKKTLDETVKDKIAKEQESKETIGTLKKTLDETVKDKIAKEQESKETIGTLKKTLDETVKDKIAKEQESKETIGTLKKILDETVKDKIAREQKSKQDIGALKQELAKKDEGNKVSEASRKGLRRDLDASREAKKQVEKDLANLTAELDKVKEEKQISDASRQGLRRDLDASREAKKQVEKALEEANSKLAALEKLNKELEESKKLTEKEKAELQAKLEAEAKALKEQLAKQAEELAKLRAGKASDSQTPDAKPGNKVVPGKGQAPQAGTKPNQNKAPMKETKRQLPST
notes: as for B1
B4: binds [1].

B5: FbaA (57–130), wild type (domain or fragment)
chain: NWHHIDKDGLIPLGISLEAAKEEFKKEVEESRLSEAQKETYKQKIKTAPDKDKLLFTYHSEYMTAVKDLPASTE
notes: source: E. coli BL21 (Gold), purified; not shown: His6, N-terminal, kept
B5: binds [1].
